What all share (assay): cell-based or functional assay
The target of one assay is CD26 on H9 T cells (UniProt P27487 1-766, limits assumed).
Assay [1] concerns the target T cell receptor of the PLP 139-151 specific T cell clone 2E5.G10.G5.E5.
The target of assay [2] is T1, T cell receptor of the PLP 139-151 specific T cell clone 4E3.B11.D9.H10.H6.
The target in assay [3] is T cell receptor of the PLP 139-151 specific T cell clone 7A5.F10.G11.
Assay [4] addresses T cell receptor of the PLP 139-151 specific T cell clone SPL.C1.H2.F2.
Assay [5] concerns the target T2, T cell receptor of the PLP 139-151 specific T cell clone 5B8.G8.E6.H12.
The target in assay [6] is T1, T cell receptor of the PLP 139-151 …. The source holds these as a separate data set.
The target in assay [7] is T2, T cell receptor of the PLP 139-151 …. This is another data set of the same source.

The text below walks through data of patent publication US6875737 (TRUSTEES OF TUFTS COLLEGE, dated 2005).

Numbered stars: 1 amine (or outer) side, 2 acyl side, 3 side chain; on linkers, the order of the positions; unused ones are H or OH. Square brackets hold non-standard residues; d marks the D form. Ends that are not written are not given here. * marks the point of attachment. εLys = N[C@@H](CCCCN[*:1])C(=O)[*:2]; Adipoyl = O=C(CCCCC(=O)[*:2])[*:1]; boroPro = OB(O)[C@@H]1CCCN1*

Sequence of CD26 on H9 T cells (P27487 whole entry): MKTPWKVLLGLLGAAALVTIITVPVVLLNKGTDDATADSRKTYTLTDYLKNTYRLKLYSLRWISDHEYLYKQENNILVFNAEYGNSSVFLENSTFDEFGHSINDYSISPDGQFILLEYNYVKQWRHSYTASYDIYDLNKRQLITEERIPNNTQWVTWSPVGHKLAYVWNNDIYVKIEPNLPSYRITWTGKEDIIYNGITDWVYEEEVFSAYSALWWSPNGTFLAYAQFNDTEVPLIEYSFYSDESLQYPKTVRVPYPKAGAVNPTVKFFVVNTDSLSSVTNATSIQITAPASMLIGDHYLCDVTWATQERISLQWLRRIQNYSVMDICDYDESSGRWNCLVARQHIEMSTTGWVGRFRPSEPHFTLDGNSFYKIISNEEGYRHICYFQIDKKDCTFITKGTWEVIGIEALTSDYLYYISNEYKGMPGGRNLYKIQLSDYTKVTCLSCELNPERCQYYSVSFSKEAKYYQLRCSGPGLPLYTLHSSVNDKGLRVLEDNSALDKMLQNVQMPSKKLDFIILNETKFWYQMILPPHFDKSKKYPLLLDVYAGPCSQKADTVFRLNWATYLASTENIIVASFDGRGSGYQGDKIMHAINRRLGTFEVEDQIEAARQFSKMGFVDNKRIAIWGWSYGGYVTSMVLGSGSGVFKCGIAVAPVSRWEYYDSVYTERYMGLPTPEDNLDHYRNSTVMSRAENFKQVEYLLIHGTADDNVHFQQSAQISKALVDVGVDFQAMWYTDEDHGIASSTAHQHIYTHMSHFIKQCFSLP

B1: KbP2-Adipate (di(L-Lysine-L-boroProline)adipate) (peptide)
peptide: Lys(Adipoyl)-[boroPro]
modifications: also: dimer: two Lys-boroPro joined by adipoyl linker between lysine ε-amino groups
For the molecule B1, in the assay with CD26 on H9 T cells, the “augmentation of IL-2 production by anti-CD3 (OKT3) stimulated H9 cells” value was not above 4 fold.

B2: PLP-S-KbP (HSLGKWLGHPDKFAAAAAA-εKbP; Lys-boroPro linked to myelin proteolipid protein peptide 139-151) (peptide)
peptide: HSLGKWLGHPDKFAAAAAA-{εLys-boroPro}
For the molecule B2, the “proliferation (thymidine uptake), antigen dose 0.1 µM” value in assay [1] was 175 3H counts; in assay [2], 3690 3H counts; in assay [3] it was 187 3H counts; in assay [4], 681 3H counts. Moreover, the “proliferation (thymidine uptake), antigen dose 1 µM” value in assay [1] was 7740 3H counts; in assay [2], 8580 3H counts; in assay [3], 8200 3H counts; in assay [4] it was 2530 3H counts; in assay [5], 22000 3H counts. Also, the “proliferation (thymidine uptake), antigen dose 10 µM” value in assay [1] was 26400 3H counts; in assay [2], 15800 3H counts; in assay [3] it was 35500 3H counts; in assay [4], 17500 3H counts; in assay [5], 53600 3H counts. Further, the “proliferation (thymidine uptake), antigen dose 100 µM” value in assay [1] was 36700 3H counts; in assay [2] it was 17600 3H counts; in assay [3], 44000 3H counts; in assay [4], 31600 3H counts; in assay [5], 34700 3H counts. In addition, the “enhancement of the proliferative response against PLP 139-151” value is approximately 2000 fold in assay [6] and approximately 200 fold in assay [7].

B3: Myelin proteolipid protein peptide PLP 139-151 (HSLGKWLGHPDKF) (peptide)
peptide: HSLGKWLGHPDKF
As for B3, the “proliferation (thymidine uptake), antigen dose 0.1 µM” value in assay [1] is 101 3H counts; in assay [2], 318 3H counts; in assay [3] it was 117 3H counts; in assay [4] it was 423 3H counts; in assay [5], 106 3H counts. Moreover, the “proliferation (thymidine uptake), antigen dose 1 µM” value in assay [1] was 288 3H counts; in assay [2], 125 3H counts; in assay [3] it was 222 3H counts; in assay [4] it was 107 3H counts; in assay [5], 349 3H counts. In addition, the “proliferation (thymidine uptake), antigen dose 10 µM” value is 70 3H counts in assay [1]; 534 3H counts in assay [2]; 406 3H counts in assay [3]; 400 3H counts in assay [4]; 9180 3H counts in assay [5]. The “proliferation (thymidine uptake), antigen dose 100 µM” value in assay [1] was 1510 3H counts; in assay [2] it was 1930 3H counts; in assay [3], 2320 3H counts; in assay [4], 809 3H counts; in assay [5], 41100 3H counts.
